We go through twelve molecules from PMC6521605, “Structural insights into nanoRNA degradation by human Rexo2” (RNA, 2019).

Residue numbers refer to the chain shown, from its start. Names and notes keep the numbering of the source.

Data set [1] has as its target T1, Rexo2 H194A H194A (Homo sapiens) (UniProt Q9Y3B8).
T1 sequence: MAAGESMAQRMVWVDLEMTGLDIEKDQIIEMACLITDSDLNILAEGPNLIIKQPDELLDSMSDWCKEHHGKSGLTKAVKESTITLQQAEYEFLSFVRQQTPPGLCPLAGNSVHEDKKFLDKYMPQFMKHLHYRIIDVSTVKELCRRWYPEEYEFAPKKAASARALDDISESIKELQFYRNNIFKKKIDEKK
Nature of the data set: fluorescence polarization. The conditions noted are these: 50 mM EDTA, Hill coefficient 2.3, FP: 10 nM Cy3-oligonucleotide, 50 mM Tris-HCl pH 7.5, 50 mM NaCl, 15 min at 25 C, crystals: 0.2 M ammonium citrate dibasic, 20% PEG 3350, pH 5.1 …. (In general: Polarisation of emitted light reports the rotation of a fluorescent probe.)

The target of the next data set is T2, Rexo2 D199A (Homo sapiens, UniProt Q9Y3B8 33-223, D199A).
T2 sequence: T1 sequence with A162H, D167A
Nature of the data set: X-ray crystallography; 2 Mg2+ in active site; pH 5.1; FP: 10 nM Cy3-oligonucleotide, 50 mM Tris-HCl pH 7.5, 50 mM NaCl, 50 mM EDTA, 15 min at 25 C; crystals: 0.2 M ammonium citrate dibasic, 20% PEG 3350, pH 5.1, room temperature. The conditions noted are these: protein: recombinant; tags: N-terminal 6xHis removed by thrombin; chain copies: 2; single strand.

The target in data set [2] is T3, Rexo2 H194A (Homo sapiens, UniProt Q9Y3B8 33-223, H194A).
T3 sequence: T1 sequence
Nature of the data set: fluorescence polarization; 50 mM EDTA; FP: 10 nM Cy3-oligonucleotide, 50 mM Tris-HCl pH 7.5, 50 mM NaCl, 50 mM EDTA, 15 min at 25 C; crystals: 0.2 M ammonium citrate dibasic, 20% PEG 3350, pH 5.1, room temperature. The following applies: protein: recombinant; tags: N-terminal 6xHis removed by thrombin; chain copies: 2; label: 5'-Cy3; single strand.

Data set [3] addresses T3, Rexo2 H194A. Nature of the data set: fluorescence polarization; 50 mM EDTA; Hill coefficient 1.4; FP: 10 nM Cy3-oligonucleotide, 50 mM Tris-HCl pH 7.5, 50 mM NaCl, 50 mM EDTA, 15 min at 25 C; crystals: 0.2 M ammonium citrate dibasic, 20% PEG 3350, pH 5.1, room temperature. The following applies: protein: recombinant; tags: N-terminal 6xHis removed by thrombin; chain copies: 2; label: 5'-Cy3; single strand.

The next data set deals with T4, Rexo2 wild type (Homo sapiens, UniProt Q9Y3B8 33-223).
T4 sequence: T1 sequence with A162H
The data set is described as follows: X-ray crystallography; no Mg2+ added, two endogenous Mg2+ at partial occupancy; pH 5.1; FP: 10 nM Cy3-oligonucleotide, 50 mM Tris-HCl pH 7.5, 50 mM NaCl, 50 mM EDTA, 15 min at 25 C; crystals: 0.2 M ammonium citrate dibasic, 20% PEG 3350, pH 5.1, room temperature. The following applies: protein: recombinant; tags: N-terminal 6xHis removed by thrombin; chain copies: 2; single strand.

Data set [4] deals with T3, Rexo2 H194A. Nature of the data set: fluorescence polarization; 50 mM EDTA; Hill coefficient 3.5; Results sentence calls it 12-nt, legend and Methods 11-nt; FP: 10 nM Cy3-oligonucleotide, 50 mM Tris-HCl pH 7.5, 50 mM NaCl, 50 mM EDTA, 15 min at 25 C; crystals: 0.2 M ammonium citrate dibasic, 20% PEG 3350, pH 5.1, room temperature. The following applies: protein: recombinant; tags: N-terminal 6xHis removed by thrombin; chain copies: 2; label: 5'-Cy3; single strand.

Data set [5] deals with the molecule itself. Nature of the data set: SEC-MALS; purified His-tag-free Rexo2 (residues 33-223); MW of ~44 kDa against 22.436 kDa calculated for a protomer; conditions not given.

2-nt RNA A2: the Kd in data set [1] amounted to 24.4 nM.
In the case of UUUUUUUUUUUU (ssRNA) [U12 RNA], the binding result with Rexo2 D199A is given as “binds”.
Consider TTT (ssDNA) [3-nt DNA T3], for which the Kd in the data set with Rexo2 H194A [2] turned out to be 29.9 nM.
Still for that read-out and setting: for TTTTTTTTTTTT (ssDNA) [12-nt DNA T12] the value was 52.2 nM.
Consider AAAAA (ssRNA) [5-nt RNA A5], for which, in the data set with Rexo2 H194A [3], the Kd was 52.1 nM.
For TTTTT (ssDNA) [T5 DNA (crystal)], the binding result with Rexo2 wild type was “binds”.
As for TTTTTTTTTT (ssDNA) [T10 DNA (crystal)], the binding result with Rexo2 D199A is reported as “binds”.
As to AGCGCAGUACC (ssRNA) [11-nt RNA], the Kd in the data set with Rexo2 H194A [4] was determined as 44.3 nM.

B1: human RNA exoribonuclease 2 (Rexo2), wild type, residues 33-223 (enzyme, UniProt Q9Y3B8 33-223, looked up)
chain: T1 sequence with A162H
notes: His tag removed with Thrombin (pET28a, NdeI/SalI); a few vector residues may be left at the N-terminus after cleavage (surmise); Calculated MW of a protomer 22.436 kDa; also called wild-type Rexo2; small fragment nuclease; source: E. coli BL21-CodonPlus (DE3) RIPL, purified (HisTrap HP, Thrombin, HisTrap flow-through, Superdex 75); not shown: His6, N-terminal, cleaved
On to B1, for which the “stoichiometry N” value in data set [5] is 2.

B2: human Rexo2-H194A mutant, residues 33-223 (enzyme, UniProt Q9Y3B8 33-223, looked up)
chain: T1 sequence
notes: human Rexo2, residues 33-223, general base residue H194 replaced by Ala; Made by site-directed mutagenesis from the wild-type construct; PDB 6J7Y holds the wild-type parent; also called H194A Rexo2 mutant; source: E. coli BL21-CodonPlus (DE3) RIPL, purified (HisTrap HP, Thrombin, HisTrap flow-through, Superdex 75); not shown: His6, N-terminal, cleaved
Turning to B2, the “stoichiometry N” value in data set [5] was 2.

B3: human Rexo2-D199A mutant, residues 33-223 (enzyme, UniProt Q9Y3B8 33-223, looked up)
chain: T1 sequence with A162H, D167A
notes: Made by site-directed mutagenesis from the wild-type construct; PDB 6J7Y holds the wild-type parent; source: E. coli BL21-CodonPlus (DE3) RIPL, purified (HisTrap HP, Thrombin, HisTrap flow-through, Superdex 75); not shown: His6, N-terminal, cleaved
With B3, in data set [5], the “stoichiometry N” value is 2.
For the molecule TTTTT (ssDNA) [5-nt DNA T5 (Cy3)], the Kd with Rexo2 H194A [2] was 51.8 nM.

The term Kd denotes the constant that tells how readily two partners part at equilibrium. By stoichiometry N is commonly meant a count of units in the complex or per binding partner.
